According to publication PMC2951365 (PLoS ONE, 2010):

Molecular target: T1, ubiquitin (Ub) (UniProt P0CG48 1-76)
T1 construct: ubiquitin, the mature 76-residue product of the polyubiquitin precursor; Used 15N-labelled or unlabelled; also called monoUb; 15N-labeled Ub; source: E. coli (pET-3a-Ub), purified (acetic acid denaturation, SP XL column, Superdex-75)
Experiment: NMR titration; 15N-Ub (~0.2 mM) titrated with increasing amount of GB1-tagged UIM peptides; 1H-15N HSQC; 20 mM phosphate, 100 mM NaCl, pH 6.5, 25°C; apparent KD from I13, K48 and L71 of Ub; for AT3-UIM12 a simplified 1:2 fit with the two UIM motifs binding Ub equally
Conditions: both partners purified

B1: GB1-fused AT3-UIM3 (residues 335-354) (domain or fragment)
chain: SEEDMLQAAVTMSLETVRND
modifications: GB1 carrier and C-terminal His6 left out. The template's polyQ length is not printed. The printed limits are applied to the 361-aa UIM3-containing form, where they span the whole UIM3 and correspond …
- Kd: > 3 mM
